Assay: soluble on expression in E. coli; label from the status in PepcDB or PDB records
With “MTGHWSYCDDDECGPNRWPTGQHQSPINIDLGEVERKDTHDGIKFVNYDHPIQGDIVNNGHSVQMTPELRSEHPEIYGGGLDQVYRLVQYHFHWGENDNEGSEHTLGGLRYPAELHLVHQGVEDPGKLAVVGVFLQLGKEGKALSNEERVLGKLCNPETVTRVENVRLSEKLPANKRSFWRYEGSLTTPPCSEIVTWTIFTEPVTVTHDQLELFRQVQDIEKRPIKKNYRPTQNLNDRKIVHIVAN” the “soluble on expression in E. coli” value was “not soluble”. For “MGSDKIHHHHHHMPGAYAHLTMVNLVKEPDRLEKQGFPPEAIVSILDYFRFCELGAVSPDYPYLDIAHSSAGQWADRMHYQRTGDMIKAGVEWIRRLDGASRQKAFSWLLGYTSHVVTDTTIHPVIELKVGEYQKNKDKHRICEMHQDAYIFQRLNLGEIGLAEHLDSGIWSCCDKPGSGKLDSVITRTWQSMLETCYAGACQTDPPLIDNWHGAFKFVVDKAEEGHALPPFARHVAANLGLTYPAVADLDPQYLESLATPLEAMSYDAIFDRALENVLATGSLIAKAVFQNDNSYATALVNCNLDTGKDDQGNHIYWKKGVS”, the “soluble on expression in E. coli” value was “not soluble”. For “GAMQGEVSKAASADSTTEGTPADGFTVLSTKSLFLGQKLQVVQADIASIDSDAVVHPTNTDFYIGGEVGNTLEKKGGKEFVEAVLELRKKNGPLEVAGAAVSAGHGLPAKFVIHCNSPVWGADKCEELLEKTVKNCLALADDKKLKSIAFPSIGSGRNGFPKQTAAQLILKAISSYFVSTMSSSIKTVYFVLFDSESIGIYVQEMAKLDAN”, the “soluble on expression in E. coli” value was “soluble”. In the case of “MKKIVLYGGQFNPIHTAHMIVASEVFHELQPDEFYFLPSFMSPLKKHHDFIDVQHRLTMIQMIIDELGFGDICDDEIKRGGQSYTYDTIKAFKEQHKDSELYFVIGTDQYNQLEKWYQIEYLKEMVTFVVVNRDKNSQNVENAMIAIQIPRVDISSTMIRQRVSEGKSIQVLVPKSVENYIKGEGLYEH”, the “soluble on expression in E. coli” value is reported as “soluble”. For “AKIDNAVLPEGSLVLVTGANGFVASHVVEQLLEHGYKVRGTARSASKLANLQKRWDAKYPGRFETAVVEDMLKQGAYDEVIKGAAGVAHIASVVSFSNKYDEVVTPAIGGTLNALRAAAATPSVKRFVLTSSTVSALIPKPNVEGIYLDEKSWNLESIDKAKTLPESDPQKSLWVYAASKTEAELAAWKFMDENKPHFTLNAVLPNYTIGTIFDPETQSGSTSGWMMSLFNGEVSPALALMPPQYYVSAVDIGLLHLGCLVLPQIERRRVYGTAGTFDWNTVLATFRKLYPSKTFPADFPDQGQDLSKFDTAPSLEILKSLGRPGWRSIEESIKDLVGSETA”, the “soluble on expression in E. coli” value was “soluble”. In the case of “QKLVQLILDEIVEGGAKVEWTDIAGQDVAKQALQEMVILPSVRPELFTGLRAPAKGLLLFGPPGNGKTLLARAVATECSATFLNISAASLTSKYVGDGEKLVRALFAVARHMQPSIIFIDEVDSLLSERSSSEHEASRRLKTEFLVEFDGLPGNPDGDRIVVLAATNRPQELDEAALRRFTKRVYVSLPDEQTRELLLNRLLQKQGSPLDTEALRRLAKITDGYSGSDLTALAKDAALEPIRELNVEQVKCLDISAMRAITEQDFHSSLKRIRRSVAPQSLNSYEKWSQDYGDITIK”, the “soluble on expression in E. coli” value is reported as “soluble”. With “MGFLPDSWHFYIETLLVALLAYVVMRNRSKRQQEKLSKKLTERQKDELIADWTPEPLVPETPQDHPVLNPKYADGKMTKDVSIDGEKYLNMASTNFLSFIGVKRIEDRAKQTIFKYGVGSCGPRGFYGTVDVHLDLEKELAKFMGCEEAVLYSYGFATVSSAIPAYAKKGDVIFVDEGVNFAIQKGLQASRSRVEYFKHNDMEHLERLLLEQEQRDKKDPKKAKSVRRFIVVEGLYVNYADLCPLPKIIEFKWRFKVRVFIDESWSFGVIGKTGRGVTEHFNVPMEDVDMVMASLENALASTGGFCVGRSYVVGHQRLSGLGYCFSASLPPLLATAASEAISIIDEEPSRVQKVTEMAINGQKKLQDALSGSKFSLQGCPESPMKHIYYNGEDEEKQLDTFVETVFTKNHLLLTRARYLDKDELFKIRPSIRVMFQHDLTEEEIQRAVDAIRVVAHKF” the “soluble on expression in E. coli” value was “not soluble”. With “MSLEQLLTNYSIETQTKSCEDFAFRIGFNDIKYMGGVSESAKDGNRKIYNEMLRYAMDKRNNIQAIIVYSMDRFSRHLASAAPDIEKLNKKNIILYSVQEQISSNDDMGIHFMNFKLSSSQFENRLRSSRARDGVRNRILMGKYPFATPPIGYNKDSDKNLVINEDGELLRKAFKMLLDGYSMMHIMKVMSRYGIIKPVNRWGEIFRNPIYAGLIVSKTNDNKPIKGIHQPIVSEKDFYKLQGIFEFKSKPRLKETDTIDIFPLKTLLQCPNGHGRLTGDIKKTKKNQPAYYKCNKCSFTASAQKANNAFLNLLSVVEFNQVFKDEFKEILDAVFENTFQEMTVKKNKLAREISIKETQLTNLFDAKFAEKINENKFEILSAKYTQSLEDMQKQLVFVTAELPEKKTFIEDCLIDLNNFEKLWDVAEYMDKQQIFNTIFKEKPSIVNNNHKIGLSNISLNPAFRSNLVELVHRKAIITGNYEGHHHHHH” the “soluble on expression in E. coli” value was “not soluble”. In the case of “MGYASKLALKICLASLCLFSALGAEHLEQKRNYIYKGEEAYNNKEYERAASFYKSAIKNGEPLAYVLLGIMYENGRGVPKDEKKAAEYFQKAVDNDIPRGYNNLGVMYKEGRGVPKDEKKAVEYFRIATEKGYTNAYINLGIMYMEGRGVPSNYVKATECFRKAMHKGNVEAYILLGDIYYSGNDQLGIEPDKDKAIVYYKMAADMSSSRAYEGLAESYQYGLGVEKDKKKAEEYMQKACDFDIDKNCKKKNTSSRLEHHHHHH”, the “soluble on expression in E. coli” value is reported as “soluble”. In the case of “MERLSPVFATSKSSNMEVEHWMTSLKEVEKVLDSVEPKLTSSGTKWRVVAQHIKDICSDLNQIFNKEDPRYEVVQAGASAAHDFDVRYLDIHKVRTPHEPLEMRHSKGRKHGREIARLLEKIQKYRQEIEEIKKEYKETDKYRERYDHYKVKLDNLEKKNKDQERIERNQQKFKDAEAAYSSVCADLIQKMETVWKKHVSIFAEAASAVWSTQLQYAKALEAAANPIVPYLQQEEQEEEEEEEAASGTQGRVAEKAYHTNEEKVENSFQKNSAIPPSFRTASEQLTEQSKNINNAKNTSETSPAEDIEA”, the “soluble on expression in E. coli” value is reported as “soluble”. In the case of “MSLKRKIETFLAKWKKSEDRKPLVIKGIRQCGKTYIVQKFAKENYESVVYMNFILEPDKKSAFTGNIDVDTIILNLSALIQGSRFINGKTCIILDEIQECKEARTALKSFHIDGRFDVIATGSLLGVKGYDKSKKKKEEEEGQDSVPVGYETVIDMYPLDFEEFLWANGISDMVIDSVKSCFENESTVPDGIHKAMMELLYRYVIVGGLPEVVNCFLETKNIELIYKVQRNLIAEYEEDMVKYADDPDKPRIRECFESIPKQLAKENKKFQYSVVKKGGRASQYIGSIQWLEDAGIVRRCYNTQITELPLEGNSIKGSFKVYTTDIGILMAMLDYGTQADILKGNLLGYKGAIFENLMADFLCKSGQKLYYFHKDSGLELDFLVRFKGECVILEVKAKTGKAKSMTTVLKNKDVYYVNNAIKLGQYNVGCEGDILTIPLYMGFLVEDKLADVIIPDVDVSLLTTIEGHHHHHH”, the “soluble on expression in E. coli” value is reported as “soluble”. In the case of “GHMAIQRRIRRVKTVQMTTNSPIHRSGSVLEPGNWQEYDPFLLLMEDIFERGTFDVHPHRGIETVTYVISGELEHFDSKAGHSTLGPGDVQWMTAGRGVVHKEDPASGSTVHSLQLWVNLPSAYKMTEPRYQNLRSKDMPVRKEEGATIRVFSGSSKGVKAPTKNIVPVTMVEMIVEPGTTVVQDLPGHYNGFLYILEGSGVFGADNIEGKAGQALFFSRHNRGEETELNVTAREKLRLLLYAGEPVNEPVVAYGPFVMNTPEQIREAIRDYQEGRFGR”, the “soluble on expression in E. coli” value is reported as “soluble”. In the case of “MKRVRLQEVAQVAGVSLGLASAVLNGRHVRARPETVERIREAAQRLGYVPDRMAQAMRWGRTGIIALVVPNFANPYYSALAVEVQRAAWEADLEVLVYANPTEDLAQVSRAVSARRVDGGIIVVSHYTPEELKAHLPLEIPWVGVGHALEPLPFDRVSFKDKEAAMDAVRYLADKGYRRIAHLAGPAPSPTAKARLEGYLEAVSALGMPALVQEGTFRYGDNQRALQTLLGWRADALLAGNDLMALEALAFLQDRGVPVPQGMAVVGFDGIPMGEWVRPQLTTIVRSPRASAQAALARLLARLEGAGEPPQEVWLDTSLRPGDSA”, the “soluble on expression in E. coli” value is reported as “soluble”. For “MSLAPAQRAFSDWQVTCNNQNFCVARNTGDHNGLVMTLSRSAGAHTDAVLRIERGGLKSPDASEGEIAPRLLLDGEPLALSGDKWRISPWLLVTDDTATITAFLQMIQEGKAITLRDGNQTISLSDLKAALLFIDAQQKRVGSETAWIKKGDEPPLSVPPAPALKEVVVVNPTPTPLSLEERNDLLDYGNWRMNGLRCSLDPLRREVNVTALTDDKALMMISCEAGAYNTIDLAWIVSRKKPLASRPVRLRLPFNNGQETNELELMNATFDEKSRELVTLAKGRGLSDCGIQARWRFDGQRFRLVRYAAEPTCDNWHGPDAWPTLWITREGHHHHHH”, the “soluble on expression in E. coli” value was “soluble”. For “MGSDKIHHHHHHMLRGMYTASGAMQALQRQQEMLSNNLANARTPGFRADQASLRTFPEMMIQQSGVNEQSGVRSRGTVGKLATGVFMQAATPNFALGSITETGNATDLQISSLEGAALFTIRHADPATGEEETLYTTNGQFAVGQDGLLRTTENDLVLGDAGQPLNVVNEDFTVSADGAVTDGNGQAIGNLGLVVTNQPETLERTGNGLFRSPDALNGGAIKVDQGVLELGNVEVEQTMTEMNAGLRQFEANQKVIQAYDRTAEKAVSEIGRVR”, the “soluble on expression in E. coli” value was “not soluble”. For “AHHHHHHASAKWVCKICGYIYDEDAGDPDNGISPGTKFEELPDDWVCPICGAPKSEFEKLEDGSRRMDKVDLQLIKILSQNSRLTYRELAEMLGTTRQRVARKVDKLKKLGIIRKFTIIPNLEKLNYMYAILLIKVKATENIYQVAKVLKDHEDVKILELGVGKYNIIAHVLVPKDIKKAQEKVNDVIKEINGIEDLEVEFVSDIPKFELL”, the “soluble on expression in E. coli” value was “soluble”. For “GAKQVDVHDPVMTREGDTWYLFSTGPGITIYSSKDRVNWRYSDRAFATEPTWAKRVSPSFDGHLWAPDIYQHKGLFYLYYSVSAFGKNTSAIGVTVNKTLNPASPDYRWEDKGIVIESVPQRDLWNAIAPAIIADDHGQVWMSFGSFWGGLKLFKLNDDLTRPAEPQEWHSIAKLERSVLMDDSQAGSAQIEAPFILRKGDYYYLFASWGLCCRKGDSTYHLVVGRSKQVTGPYLDKTGRDMNQGGGSLLIKGNKRWVGLGHNSAYTWDGKDYLVLHAYEAADNYLQKLKILNLHWDGEGWPQVDEKELDSYISQRLK”, the “soluble on expression in E. coli” value was “soluble”. For “MSLKPLHYTASALALGLALMGNAQAVTTIPFWHSMEGELGKEVDSLAQRFNAENPDYKIVPTYKGNYEQNLSAGIAAFRTGNAPAILQVYEVGTATMMASKAIKPVYDVFKEAGIQFDESQFVPTVSGYYSDSKTGHLLSQPFNSSTPVLYYNKDAFKKAGLDPEQPPKTWQDLADYAAKLKASGMKCGYASGWQGWIQLENFSAWNGLPFASKNNGFDGTDAVLEFNKPEQVKHIAMLEEMNKKGDFSYVGRKDESTEKFYNGDCAMTTASSGSLANIREYAKFNYGVGMMPYDADAKDAPQNAIIGGASLWVMQGKDKETYTGVAKFLDFLAKPENAAEWHQKTGYLPITKAAYDLTREQGFYEKNPGADTATRQMLNKPPLPFTKGLRLGNMPQIRVIVDEELESVWTGKKTPQQALDTAVERGNQLLRRFEKSTKSEGGSHHHHHH”, the “soluble on expression in E. coli” value was “soluble”. In the case of “MKDPLLNSLIYVSRYYGLANSPEALVNGLPLSDGKLTPFLLPRAAERAGLVAKENRAELEKISSLILPAILVLKGGDSCVLNSINMETREAEVTTLESGMVPISIPLEDLLEQYTGRYFLVKKQFR”, the “soluble on expression in E. coli” value is reported as “soluble”.

From the DeepSol protein solubility set
